The target of data set [1] is T1, His-OpaR (Vibrio parahaemolyticus RIMD2210633) (UniProt Q79YV4).
T1 sequence: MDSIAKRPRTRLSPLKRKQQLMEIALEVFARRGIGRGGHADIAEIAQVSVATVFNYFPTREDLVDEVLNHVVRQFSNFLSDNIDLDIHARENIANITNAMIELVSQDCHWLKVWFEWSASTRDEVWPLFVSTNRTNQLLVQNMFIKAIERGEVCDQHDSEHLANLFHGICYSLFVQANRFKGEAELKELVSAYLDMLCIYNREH
Briefly: DNase I footprinting.

Data set [2] deals with His-ToxR (Vibrio parahaemolyticus RIMD2210633) (UniProt Q05938). Put plainly: DNase I footprinting.
UniProt Q05938, sequence (Q05938 1-176): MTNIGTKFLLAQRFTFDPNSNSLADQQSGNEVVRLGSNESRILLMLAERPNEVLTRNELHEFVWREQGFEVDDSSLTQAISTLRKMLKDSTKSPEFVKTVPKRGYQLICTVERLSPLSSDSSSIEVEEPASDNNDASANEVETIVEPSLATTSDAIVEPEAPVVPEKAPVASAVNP

With “CGCTTGGATTACTTTCATCGATCGGTCTTCTTGTGAAGTCGCTGAAAAACATAATGTTAAGTTCCAACTGAGTTGATAATAAAATAATAAAGATAGATTTTTTTATTGTATTCGCCTGCTATGCCAAATGACATGCAATGCATTTTTTCTGATTTTATAGATAAAAAAAGATTTTTAGACAATAAAAAGCCGATAAATCTAATTAAAATCCATTTTGTGTGATCTTTGTTCCTAAT (double strand) [VP1409 footprinting fragment(s)]”, the binding entry in data set [1] and in data set [2] was “binds” in each case.

Regarding “ACACTTTGCACTCTTTTATGGAACAAATATTATTAGACCGAAATAATATTTGCTGAAACATCCTTGTTTCAAGGGTAGTATTTAAAACGAACAGTAAGCCTATTATTTTAGTTATAATTACTAAGTTATTAGACTCTTTGACTTACGCTTTCACTACCTGAATTACGTTGTTTTAGAAATTAAAATTTCAACAACGTAATATGACTTCATTTTCATTATATATTTCGACAAAGAATGATTAGCACGC (double strand) [VP1400 footprinting fragment]”, the binding result in data set [1] and in data set [2] was “binds” throughout.

For “ATTCTCCACAACCAACATCGTAAACATGGTTGCGGTGACGTTTAAGCTGATAAGGCTTACAAGTACGATTTGGTGTGCTAATGCTACTAATTTAATTCATAACATTCAATCACATAGAAAACTTCCAGAAAACCGAAATGCCCGAGAAATAACAAAACCACAGGTTATTTGGTTGTTTTAACTATCAATTCAAACTTATTACCCTTCAATCCAACTCAAAAGGCAGGCTTTAAGCAAAAACAGTTTTTTACTTTTGGGCAGAAGTTAACAAATTCAA (double strand) [VP1388 footprinting fragment]”, the binding result in data set [1] was “binds”.

The values above are taken from paper PMC5650642.
